Test results from patent US6017763.

Key:
[1] = target: pig neutrophil Gβγ-activated PI3K B (p120/p101 heterodimer) (porcine)
[2] = target: pig neutrophil Gβγ-activated PI3K A (p117/p101 heterodimer) (porcine)
[3] = target: porcine 6×HIS-tagged p120, Sf9-derived (pAcHLT p120), uncleaved (porcine)
[4] = target: porcine twice-cut p120 (thrombin cleaved, lacking approximately 40 amino-terminal residues) (porcine)
[5] = target: Sf9-derived p101/p120 heterodimer ((EE)-p101 with 6×HIS-p120), formed in vivo by co-infection or reconstituted in vitro (porcine)

Gβγ subunits (purified G protein βγ subunits)
PI3K (lipid kinase) activity [1]: > 100 ×
PI3K (lipid kinase) activity [2]: > 100 ×
PI3K activity of free p120 [3]: 1.7 fold
PI3K activity of thrombin cleaved p120 [4]: 2.5 fold
PI3K activity [5]: > 100 ×
